Reference: patent US20260176659A1, “IMPROVED METHOD FOR THE PRODUCTION OF NATURAL VANILLIN” (BASE SE, priority 2022, published 2026)
Where “and” joins values, the source holds several entries; their conditions need not be identical. Equal entries are not always repeated.

Experiments:
Format in all cases: biochemical
[1] = Bioconversion of eugenol to vanillin: one-pot concurrent cascade EUGO + alkene cleavage oxygenase (5 mM scale); conditions: for Reaction composition after 24 hours 1a (%) / Reaction composition after 24 hours 2a (%) / Reaction composition after 24 hours 3a (%) / Reaction composition after 24 hours 5a (%): Table 8a, CO-XX FD-CFE 1 mg/mL; for Reaction composition after 24 hours 1a (%) / Reaction composition after 24 hours 2a (%) / Reaction composition after 24 hours 3a (%) / Reaction composition after 24 hours 5a (%) / Product distribution after 24 hours 2a (%) / Product distribution after 24 hours 3a (%) / Product distribution after 24 hours 5a (%): EUGO FD-CFE 1 mg/mL, catalase 10 mg/mL, eugenol 5 mM; for Product distribution after 24 hours 2a (%) / Product distribution after 24 hours 3a (%) / Product distribution after 24 hours 5a (%): Table 8b, CO-0X FD-CFE 1 mg/mL; for Conversion of 1a to 3a (%) / Reaction composition at 24 hours (%) 1a / Reaction composition at 24 hours (%) 2a / Reaction composition at 24 hours (%) 3a / Reaction composition at 24 hours (%) 5a: replicates of concurrent cascade with EUGO, 5 mM 1a, SD of four experiments; for Conversion of 1a to 3a (%): 24 h
Method in brief: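 Cell-free extracts of EUGO (0.5 mg) and cleavage oxygenase (3 mg) were combined with catalase, 1 mM FeSO4 and 1 mM ascorbate in glycine-NaOH pH 9.0 (or Tris-HCl pH 8.0). The cascade ran with 5 mM eugenol (5% ethanol/DMSO cosolvent) at 30° C and 120 rpm overnight. Methanol-quenched samples were analysed by HPLC at 280/340 nm.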

[2] = Spectrophotometric enzymatic assay: cleaving activity, production of vanillin from coniferyl alcohol at 349 nm; conditions: for Screening of putative COs: formation of 3a upon 2a cleavage (hit or inactive): spectrophotometric assay
Method: Stock solution 200× of coniferyl alcohol (90 mg) was prepared in ethanol (5 mL) and stored at −20° C. From this, a new stock solution 20× of coniferyl alcohol (10 mM) was freshly prepared by 1:10 dilution in Glycine-NaOH (50 mM, pH 9.0). A cuvette containing 0.750 mL Glycine-NaOH (50 mM, pH 9.0) and 0.05 mL of the substrate 20× stock was pre-warmed at 25° C. for 1.5 mins. Then, the reaction was initiated by the addition of 0.2 mL of the enzyme sample. The cleaving […] activity was measured spectrophotometrically following the production of vanillin at 349 nm (ε349=26.7 mM^−1cm^−1 experimentally determined). One unit of activity (U) is defined as the amount of enzyme required to produce 1 μmol of vanillin per min. Agilent Cary 60 UV-Vis Spectrophotometer was used for all the measurements.
Searching for alternative novel alkene cleavage oxygenases (COs) catalysing the formation of vanillin from coniferyl alcohol was performed. A set of 27 sequences and 10 COs from different branches of the phylogenetic tree were selected, named CO-02-11. Two additional enzymes were included, which are located in different clusters of the phylogenetic tree: Lignostillbene dioxygenase from Pseudomonas brassicaceraum (PbLSD, PDB: 5V2D) and aromatic dioxygenase (Ado, CO-01) from Thermothelomyces thermophilus (GenBank ID: XP_003665585). The proteins were recombinantly expressed in E. coli BL21(DE3), following the same protocol developed for IECO. […] Putative COs were screened by spectrophotometric assay, monitoring the formation of 3a upon 2a cleavage. From a set of twelve COs, four positive hits, namely CO-01, CO-03, CO-06 and CO-07 were found. Positive variants were tested in the one pot cascade and compared them with IECO In agreement with the spectrophotometric screening, all four COs converted eugenol 1a to vanillin 3a (Table 8). The first step of the cascade is efficiently performed by EUGO, and the substrate is completely consumed. […] Overall, 70±3% conversion of 1a to vanillin 3a was achieved.

[3] = CO-03 activity in presence of eugenol
Method: Stock solutions of coniferyl alcohol (250 mM), eugenol (0-2 M) were prepared in ethanol and stored at −20° C. Unless otherwise specified, the reaction mixtures (0.5 mL) were set up in 1.5 mL glass vials as follows: CO-03 (freeze-dried CFE 5-10 mg/mL) was dissolved in buffer (Glycine-NaOH 50 mM, pH 9.0 or Tris-HCl 50 mM, pH 8.0) with sodium ascorbate (1 mM), FeSO4 (1 mM), bovine liver catalase (Sigma C40, 10 mg/mL) and eugenol (0-100 mM). The final content of ethanol was 5-7% v/v. The reaction was initiated by the addition of coniferyl alcohol (5 mM), and then incubated for 4 hours at 30° C. and 120 rpm (rotary shaker). To improve the oxygenation, the vials were placed horizontally.

[4] = cascade with EUGO, pH 8.0 and pH 9.0

B1: CO-07: alkene cleavage oxygenase, Thermopolyspora flexuosa, SEQ ID NO: 40 (protein, listed as Thermopolyspora flexuosa)
chain: MVWFPPPKDPFDAPMRVEADIRGVQVTQGEVPEHLDGTYYRCVSDRQWPSYVENDLELFNSDGMIISFRFHKGRVDFKSRYVRTPRFVAEEKAGRALFGAYRNPFDDDPSVAGISRGLANTNVFFHGGKLYASKEDSPPILIDPDTLETIGEYDFEGALTSRTATAHPKFDPVTGEMVFFGYEAKGPGTPDIAYYEADPSGRIIHEAWLEAPYTSMVHDWAVTQNFVIFPIIPLRSDIEWIKKGQSYFQWDPYEDVYLGVMPRKGTAKDLRWYRGSNRFASHIMGAYDDGRYVYIDTPVGQTNYFPWFPDITGAPYDPERSKGYLSRWTIDTQGESDGFTETRLSDLPGEFPRMDDRQETLPYHWGIMLLTDVPGRNAPGGGFRWLMGIDLKTGRKQIYYPGDHCTLGEAIFVPAAPDAPPGVGYVLTVVARRKEMRSDLVLLDAQRLDGEPVCTLSLPMRIRMGVHGNWVSAAELAGRTD
- Reaction composition after 24 hours 1a (%) ([1]; pH 8.0): 51%
- Reaction composition after 24 hours 2a (%) ([1]; pH 8.0): 61%
- Reaction composition after 24 hours 3a (%) ([1]; pH 8.0): 21%
- Reaction composition after 24 hours 5a (%) ([1]; pH 8.0): 18%
- Reaction composition after 24 hours 1a (%) ([1]; pH 9.0): 51%
- Reaction composition after 24 hours 2a (%) ([1]; pH 9.0): 50%
- Reaction composition after 24 hours 3a (%) ([1]; pH 9.0): 27%
- Reaction composition after 24 hours 5a (%) ([1]; pH 9.0): 23%
- Screening of putative COs: formation of 3a upon 2a cleavage (hit or inactive) [2]: positive hits

B2: CO-03: alkene cleavage oxygenase from Sphingomonadales bacterium, SEQ ID NO: 30 (protein, listed as Sphingomonadales bacterium)
chain: MSLFNRNHPVFSGGNAPVRIETDAICLETDGALPDELKGSYFRLTADPQFPPRLRPVLVEADGHVGAFHFRDNGQVDYVGKWVRTERFLRERAARRALFGTYRNRFTDEESVLDSDRTTANTAFMFHHHKFFALKEDGLPYQLDPETLDTIGRYDFGGTVSAKSLSAHPKVDSRTGELITHSGQAKGEGTPDIAYYVFDKNGTKTVERWFEAPYSSIVHDIAITQDWVVLPIMPAVVEEERLRAGGATYWWKPELGNHIAVFRRDGTGDVRWFRTKATYAFHVVNSYQDGDRLIIDVMDAEEFPMWWPRPEQVAALRSGEIKRDKFVAQLTRWTIDLAGDSDDIERELLHPWEAEMPRIDDRFAGQPYRYAVYGVDDPSFPLAHGLAELGVNHNSVGWWDHQTRTLTSWYTGPNSSVGEPVFTPRSPDAPEGDGFILAVVQRLAEQRSELVVIDTRDVAAGPIASVHAPHRLKNAIHNLWIDQEQLNEGGEKA
- cleaving activity retained ([3]; 50 mM 1a, increased biocatalyst amount and modified reaction buffer): 49%
- Residual activity ([3]; at 50 mM 1a): ≤ 10%
- Reaction composition after 24 hours 1a (%) ([1]; pH 8.0): ≤1%
- Reaction composition after 24 hours 2a (%) ([1]; pH 8.0): 14%
- Reaction composition after 24 hours 3a (%) ([1]; pH 8.0): 78%
- Reaction composition after 24 hours 5a (%) ([1]; pH 8.0): 8%
- Reaction composition after 24 hours 1a (%) ([1]; pH 9.0): ≤1%
- Reaction composition after 24 hours 2a (%) ([1]; pH 9.0): 8%
- Reaction composition after 24 hours 3a (%) ([1]; pH 9.0): 81%
- Reaction composition after 24 hours 5a (%) ([1]; pH 9.0): 11%
- Product distribution after 24 hours 2a (%) ([1]; pH 8.0): 19.6%
- Product distribution after 24 hours 3a (%) ([1]; pH 8.0): 72.0%
- Product distribution after 24 hours 5a (%) ([1]; pH 8.0): 8.4%
- Product distribution after 24 hours 2a (%) ([1]; pH 9.0): 11.9%
- Product distribution after 24 hours 3a (%) ([1]; pH 9.0): 74.9%
- Product distribution after 24 hours 5a (%) ([1]; pH 9.0): 13.2%
- amount of 3a in reaction mixture [1, 4]: 78-81%
- remaining 2 and its oxidation product 5a in the reaction mixture [1, 4]: ~20%
- Conversion of 1a to 3a (%) ([1]; pH 8.0): 70 ± 3%
- Reaction composition at 24 hours (%) 1a ([1]; pH 8.0): 1≤ %
- Reaction composition at 24 hours (%) 2a ([1]; pH 8.0): 14 ± 3%
- Reaction composition at 24 hours (%) 3a ([1]; pH 8.0): 80 ± 2%
- Reaction composition at 24 hours (%) 5a ([1]; pH 8.0): 9 ± 1%
- Conversion of 1a to 3a (%) ([1]; pH 9.0): 70 ± 3%
- Reaction composition at 24 hours (%) 1a ([1]; pH 9.0): 1≤ %
- Reaction composition at 24 hours (%) 2a ([1]; pH 9.0): 7 ± 2%
- Reaction composition at 24 hours (%) 3a ([1]; pH 9.0): 83 ± 3%
- Reaction composition at 24 hours (%) 5a ([1]; pH 9.0): 10 ± 1%
- overall conversion of 1a to vanillin 3a in the 2-step cascade ([1]; with EUGO, 5 mM substrate concentration): 70±3% and 70%
- Specific Activity (mU/mg of FD-CFE) ([2]; freeze-dried cell free extract incl. buffer salts, vanillin from coniferyl alcohol): 7-10 mU/mg
- Screening of putative COs: formation of 3a upon 2a cleavage (hit or inactive) [2]: positive hits
